From patent US9610323B2, “Model systems and treatment regimes for treatment of neurological disease” (NoNO Inc., priority 2009, dated 2017)
Like-named read-outs stand apart in the source and are kept apart here. Square brackets hold non-standard residues; d marks the D form. Ends that are not written are not given here.

Tests used:
[1] = molecular target: binding of NMDAR 2B to PSD95 (Homo sapiens, UniProt P78352); settings: reported by Bach; cited from earlier work
[2] = tested on: embolic stroke; test: Primate model of ischemic stroke (twenty 100-micron polystyrene spheres into an intracerebral vessel; MRI brain analysis); assay type: in vivo, macaques; settings: 2.6 mg/kg one hour after spheres
Procedure: The following example was performed on ten macaques divided into five test subjects and five controls. Each animal was put through the protocol twice with test animals in the first round serving as controls in the second round and vice versa.
Twenty 100-micron polystyrene spheres were delivered into an intracerebral vessel of each animal to induce embolic stroke. One hour after introducing the sphere, the animals were treated with Tat-NR2B9c (2.6 mg/kg) or vehicle control. The animals were then subject to MRI brain analysis and neurological examination at 4 hr, 24 hr and 14 days after introduction of the spheres.
After 14-28 days, the procedure was repeated with test animals serving as controls and vice versa.

[3] = high dose groups, dogs
[4] = high dose groups, rats
[5] = 50 mg/kg
Procedure: Tat-NR2B9c was administered to rats at 50 mg/kg and infusion times of 3 min or 60 min.

[6] = Procedure: For use such a composition is thawed and diluted into a larger volume of normal saline for infusion into a blood vessel. Another composition can be made by lyophilizing the chimeric agent Tat-NR2B9c at a concentration of 1-50 mg/ml in normal saline in the presence or absence of excipients. Such excipients can include those to increase stability or inhibit bacterial, viral or other pathogen growth that could degrade the drug. […] The lyophilized composition can be reconstituted in normal saline.
[7] = tested on: permanent pial vessel occlusion (P3VO) stroke; test: Rat model of stroke, permanent pial vessel occlusion of 3 terminal branches of the Middle Cerebral Artery (P3VO); assay type: in vivo, Sprague Dawley rats; settings: 7.6 mg/kg i.v. after vessel occlusion, 5 min infusion
Procedure: Different infusion times were also compared for efficacy in a rat model of stroke in which adult Sprague Dawley rats (10-12 weeks old) (males˜300 g, females˜250 g) were fasted for 12-18 hours before being subjected to permanent pial vessel occlusion of 3 terminal branches of the Middle Cerebral Artery over the Whisker Barrel Cortex (P3VO). The protocol for analysis of this rat model has been described in WO/2008/008348. Tat-NR2B9c was administered at 7.6 mg/kg i.v. after vessel occlusion in comparison with vehicle. Two periods of infusion were compared, 5 min and 1 hour.

[8] = for subjects with histamine levels greater than 10 nmol/L: 3.75 mg/kg dose group; for maximum histamine level / average histamine level: 3.75 mg/kg; for average histamine level: subjects with levels greater than 10 nmol/L
Procedure: We carried out a Safety, Tolerability and Pharmacokinetic Study of Tat-NR2B9c in humans. Subjects were either normal, healthy, non-smoking males or post-menopausal or surgically sterile female subjects with a minimum age of 18 years. The subjects were either administered Tat-NR2B9c, Lot #: 124-134-001B, or were given placebo (Phosphate Buffered Saline), Lot #: 124-134-001A, administered as an intravenous infusion (10±1 minutes). Four subjects were dosed in each of Cohorts 1 to 3, and 10 subjects were dosed in each of Cohorts 4 to 8.
During the study period, 11 blood samples were collected for pharmacokinetic analysis from each subject at the following timepoints: 0.00 (pre-dose), 0.08 (5 minutes), 0.17 to 0.25 (10 to 15 minutes, precisely at the end of each individual drug infusion), 0.33 (20 minutes), 0.50, 0.75, 1.00, 2.00, 6.00, 12.00, and 24.00 hours post-dose. In addition, 8 blood samples were collected for histamine analysis from each subject at the following timepoints: 0.00 (pre-dose), and at 0.08 (5 minutes), 0.17 (10 minutes), 0.25, 0.50, 1.00, 2.00, and 24.00 hours post-dose.
The safety assessment was performed on all subjects who received at least 1 dose during the course of the study. The incidents of all adverse events (AEs) were tabulated by treatment and subject number. Absolute values for vital signs, electrocardiogram (ECG) parameters, laboratory parameters and physical examinations were also documented and values outside the normal range were flagged. Shifts from baseline values were tabulated. AEs were documented using investigator and Medical Dictionary for Regulatory Activities (MedDRA) terms.

[9] = high dose groups, primates
[10] = tested on: cerebral ischemia; settings: reported in WO 2008/014917; cited from earlier work
[11] = cortex compared with whole brain

Chain of binding of NMDAR 2B to PSD95 (P78352 61-249 limits assumed): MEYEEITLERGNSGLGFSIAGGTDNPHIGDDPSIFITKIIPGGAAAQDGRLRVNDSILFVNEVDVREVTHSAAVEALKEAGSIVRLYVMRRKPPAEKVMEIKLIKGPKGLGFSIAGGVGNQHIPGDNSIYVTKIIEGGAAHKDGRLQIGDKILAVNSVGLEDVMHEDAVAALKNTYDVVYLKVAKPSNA

For “IESDV (synthetic pentamer peptide from the C-terminus of NMDAR 2B) [pentamer peptide from the C-terminus of NMDAR 2B, reported by Bach]”, the “inhibiting binding of NMDAR 2B to PSD95” value [1] is given as “effective”.
In the case of YGRKKRRQRRRKLSSIESDV [Tat-NR2B9c], the “reduction of number of infarctions in the cortex” value [2, 11] is reported as “even greater”, the “reduction of volumes of infarctions in the cortex” value [2, 11] is reported as “even greater” and the “number of MRI-visible infarctions in the whole brain” value ([2]; vs vehicle control) is reported as “significantly reduced”. The “volume of MRI-visible infarctions in the whole brain” value ([2]; vs vehicle control) was “significantly reduced”, the histamine levels [3] was “elevated histamine levels were observed” and the histamine levels [4] was “elevated histamine levels were observed”. For the same substance, the “decrease in blood pressure” value ([5]; infusion over 3 min) was “about 50%”, the “period of recovery of blood pressure” value ([5]; infusion over 3 min) was 90 min and the “recovery of blood pressure” value ([5]; infusion over an hour (60 min)) was “recovered over a period of hour”. For the same substance, the “reduction in blood pressure” value ([5]; infusion over an hour (60 min)) was “only a slight reduction”, the “stability of lyophilized composition” value ([6]; lyophilized from 1-50 mg/ml in normal saline, −20° C. or room temperature) was “stable” and the “stability (degradation or aggregation of the peptide) when stored frozen” value ([6]; normal saline, 10-30 mg/ml, stored frozen, two or more years) was “stable”. The “infarction size 24 hr post treatment relative to saline placebo” value [7] was “significantly reduced”, the “subjects with an elevated histamine level” value ([8]; 0.375 mg/kg dose group, 1 timepoint, 2.00 hours post dose) was 1 subject and the “subjects with histamine levels greater than 10 nmol/L” value ([8]; 10 minutes after start of administration) was 7 of the 8. For the same substance, the “subjects with histamine levels greater than 10 nmol/L” value ([8]; 10 minutes after start of administration, listed as NA 1) was “Seven of 8”, the “subjects with histamine levels greater than 10 nmol/L” value ([8]; 15 minutes after start of administration) was 3 subjects and the maximum histamine level ([8]; 10 minutes after start) was 39.8 nmol/L. The average histamine level ([8]; 10 minutes after start) was 24.3 nmol/L, the maximum histamine level ([8]; 15 minutes after start) was 20.3 nmol/L and the average histamine level ([8]; 15 minutes after start) was 15.3 nmol/L. For the same substance, the “AE dry mouth, incidence” value ([8]; 9/46 subjects receiving drug) was 19.6%, the “AE flushing, incidence” value ([8]; 10/46 subjects receiving drug) was 21.7% and the “AE pruritis, incidence” value ([8]; 12/46 subjects receiving drug) was 26.1%. The “AE feeling hot, incidence” value ([8]; 13/46 subjects receiving drug) was 28.3%, the “active treatment subjects who experienced at least 1 AE” value ([8]; 34 of 46 active treatment subjects, all doses) was 73.9% and the “time for abnormal histamine results to return to the normal range” value ([8]; after drug administration) was ≤ 24.00 h. For the same substance, the “Serious Adverse Events (SAEs)” value ([8]; all dose groups) was “No Serious Adverse Events (SAEs) were reported”, the “AEs at doses ≧2.60 mg/kg (decreased blood pressure, paraesthesia, hypoaesthesia, erythema, rash, pruritus, dry mouth, nausea, feeling hot, flushing)” value ([8]; doses ≧2.60 mg/kg) was “several AEs were frequently reported” and the “abnormal levels of histamine” value ([8]; treatment groups other than 3.75 mg/kg) was “no treatment group had significant abnormal levels of histamine”. For the same substance, the histamine levels [9] was “elevated histamine levels were observed”.
For “vdseisslk-rrrqrrkkrgyin ([dV][dD][dS][dE][dI][dS][dS][dL][dK][dR][dR][dR][dQ][dR][dR][dK][dK][dR]G[dY][dI][dN]; also: retro-inverso) [retro-inverso analog of Tat-NR2B9c, retro-inverso analog of Tat-NR2B9c described in WO 2008/014917]”, the inhibiting cerebral ischemia [10] is listed as “effective”.
